Tested on: CFTR G542X
Assay: Two-electrode voltage clamp of CFTR Cl- current in Xenopus oocytes, G542X
Type: cell-based
Experimental: FIGS. 20A-20D. Delivery of ACE-tRNA as small RNA supports robust suppression of G542X and W1282X nonsense mutations. FIG. 20A) CFTR cRNA with G542X or W1282X cystic fibrosis causing nonsense mutations was co-injected in Xenopus oocytes with serial dilutions of pre-folded ACE-tRNAGly and ACE-tRNATrp, respectively. Two-electrode voltage-clamp recordings of CFTR Cl— current were performed after 36 hrs. Current-voltage relationships illustrate that increasing amounts of FIG. 20B) ACE-tRNATrp and FIG. 20C) ACE-tRNAGly pre-folded RNA results in increased CFTR function (measured CFTR Cl— currents) with WT CFTR achieved in ACE-tRNAGly experiments. FIG. 20D) Dose response of G542X ACE-tRNAGly (filled circles) and W1282X ACE-tRNATrp (open squares) rescue (CFTR Cl— currents elicited at +40 mV were normalized to WT CFTR Cl— currents at +40 mV).
In vitro cRNA transcription. G5-42XUGA, W1282XUGA, and WT CFTR pGEMHE (Mense et al., 2006; PMID:1703051) plasmids were linearized by 10× excess of NheI-HF restriction enzyme (site positioned 3′ of coding region)(New England BioLabs, USA) for 3 hrs at 37° C. and purified using standard cDNA precipitation methods. All cRNAs were transcribed using the mMessage mMachine T7 Kit (ThermoFisher Scientific, USA). Purification of the cRNA from the transcription reaction was conducted on columns from the RNeasy Mini Kit (Qiagen, Germany). Concentration was determined by absorbance measurements at 260 nm and quality was confirmed on a 1% agarose gel (RNase-free). All cRNA was queued to 1 μg/ml before use and all results were generated from ≥2:2 cRNA preparations.
Expression in Xenopus laevis oocytes. Xenopus laevis oocytes (stage V and VI) were purchased from Ecocyte (Austin, TX). […]
Two-electrode voltage clamp ([…]) recordings. CFTR Cl^− currents were recorded in ND96 bath solution that contained (in mM): 96 NaCl, 2 KCl, 1 MgCl2, and 5 HEPES (pH 7.5) in the presence of a maximal CFTR activation cocktail, forskolin (10 μM; adenylate cyclase activator) and 3-isobutyl-1-methylxanthine (1 mM; phosphodiesterase inhibitor). […]

B1: Glychr19.trna2: top performing glycine ACE-tRNA UGA, SEQ ID NO: 53 (nucleic acid)
chain: GCGUUGGUGGUAUAGUGGUUAGCAUAGCUGCCUUCAAAGCAGUUGACCCGGGUUCGAUUCCCGGCCAACGCA
modifications: chemistry not given here
Hill coefficient (dose response of G542X rescue): ~1.4 | level of CFTR function reached (normalized to WT CFTR Cl- currents): clear saturation at WT CFTR levels | EC50 of CFTR Cl- current rescue (pre-folded ACE-tRNA RNA per oocyte, 36 hrs, currents at +40 mV normalized to WT CFTR): ~20 ng
